Experimental data taken from patent US20240116985A1 (published 2024).
Starred links: 1 amine or outer side, 2 acyl side, 3 side chain; linkers in the order of their positions; H or OH if unused. Positions of bridges follow the written chain, without caps; N, C: chain ends. Non-standard residues stand in square brackets, D forms with d. Primed or numbered codes have the meaning given here. *: point of attachment. PyrS2″ = (S)-3-amino-1-((pent-4-en-1-yloxy)carbonyl)pyrrolidine-3-carboxylic acid (stapling residue), C=CCCCOC(=O)N1CC[C@@](N[*:1])(C(=O)[*:2])C1; (Me2NPr)GAbu = (S)-2-amino-4-(N-(carboxymethyl)-3-(dimethylamino)propanamido)butanoic acid, CN(C)CCC(=O)N(CC[C@H](N[*:1])C(=O)[*:2])CC(=O)[*:3]; B5(16) = 2-amino-2-(pent-4-en-1-yl)hept-6-enoic acid = 2,2-bis(4-pentenyl)glycine (stitching residue), C=CCCCC(CCCC=C)(N[*:1])C(=O)[*:2]; TfeGA = (S)-2-amino-3-((carboxymethyl)(2,2,2-trifluoroethyl)amino)propanoic acid, O=C([C@H](CN(CC(=O)[*:3])CC(F)(F)F)N[*:1])[*:2]; PyrS2 = (S)-3-amino-1-((pent-4-en-1-yloxy)carbonyl)pyrrolidine-3-carboxylic acid, C=CCCCOC(=O)N1CC[C@@](N[*:1])(C(=O)[*:2])C1; (Pic)GAbu = (S)-2-amino-4-(N-(carboxymethyl)picolinamido)butanoic acid, O=C(c1ccccn1)N(CC[C@H](N[*:1])C(=O)[*:2])CC(=O)[*:3]; B5(9) = 2-amino-2-(pent-4-en-1-yl)hept-6-enoic acid (2,2-bis(4-pentenyl)glycine), C=CCCCC(CCCC=C)(N[*:1])C(=O)[*:2]; B5(22) = 2-amino-2-(pent-4-en-1-yl)hept-6-enoic acid (two alkene side chains), C=CCCCC(CCCC=C)(N[*:1])C(=O)[*:2]; HypEs5 = (2R,4S)-4-(pent-4-enoyloxy)pyrrolidine-2-carboxylic acid, C=CCCC(=O)O[C@H]1C[C@H](C(=O)[*:2])N([*:1])C1; GAbu = (S)-2-amino-4-((carboxymethyl)amino)butanoic acid, O=C([C@H](CCNCC(=O)[*:3])N[*:1])[*:2]; B5(3) = 2,2-bis(4-pentenyl)glycine (stitching residue), C=CCCCC(CCCC=C)(N[*:1])C(=O)[*:2]; Phenylacetyl(2,3,4,5,6-F5) = O=C(Cc1c(F)c(F)c(F)c(F)c1F)*; Benzoyl(2,3,4,5,6-F5) = O=C(c1c(F)c(F)c(F)c(F)c1F)*; Phe(3-COOH) = N[C@@H](Cc1cccc(C(=O)O)c1)C(=O)O; Phe(4-F) = N[C@@H](Cc1ccc(F)cc1)C(=O)O; Bta = N[C@@H](Cc1csc2ccccc12)C(=O)O; αAllylPro = C=CC[C@@]1(C(=O)O)CCCN1; tBuAla = CC(C)(C)C[C@H](N)C(=O)O; 3Thi = N[C@@H](Cc1ccsc1)C(=O)O; S8 = C=CCCCCCC[C@](C)(N)C(=O)O

T1: full-length beta-Catenin (Uniprot ID P35222) (Homo sapiens (Human), UniProt P35222 1-781)
T1 construct: Said to be full-length in the fluorescence polarization assay; also called bCat; B-Catenin
T1 sequence: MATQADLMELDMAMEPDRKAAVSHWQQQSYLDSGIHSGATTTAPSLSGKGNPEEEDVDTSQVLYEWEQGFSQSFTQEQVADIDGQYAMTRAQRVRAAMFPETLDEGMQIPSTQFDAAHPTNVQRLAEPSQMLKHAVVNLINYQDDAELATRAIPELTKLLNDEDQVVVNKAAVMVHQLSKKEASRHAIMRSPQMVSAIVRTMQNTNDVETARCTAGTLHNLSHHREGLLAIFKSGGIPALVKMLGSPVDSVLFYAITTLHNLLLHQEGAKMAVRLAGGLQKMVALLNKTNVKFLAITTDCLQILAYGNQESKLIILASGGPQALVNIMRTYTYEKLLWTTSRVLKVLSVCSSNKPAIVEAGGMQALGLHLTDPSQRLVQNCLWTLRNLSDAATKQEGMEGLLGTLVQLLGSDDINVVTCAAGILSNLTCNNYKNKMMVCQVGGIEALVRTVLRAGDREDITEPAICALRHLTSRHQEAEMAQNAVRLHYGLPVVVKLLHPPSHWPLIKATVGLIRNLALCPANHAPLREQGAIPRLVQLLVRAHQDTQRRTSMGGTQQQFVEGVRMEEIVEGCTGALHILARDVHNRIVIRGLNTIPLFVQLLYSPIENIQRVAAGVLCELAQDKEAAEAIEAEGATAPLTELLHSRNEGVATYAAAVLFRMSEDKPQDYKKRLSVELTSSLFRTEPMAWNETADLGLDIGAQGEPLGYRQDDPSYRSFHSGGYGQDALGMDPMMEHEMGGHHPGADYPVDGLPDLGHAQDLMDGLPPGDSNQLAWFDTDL

T2: B-cat-Halo (UniProt P35222 1-781)
T2 sequence (looked up): T1 sequence

B1: I-633 (peptide)
peptide: Ac-[αAllylPro]DI[B5(16)]DEAAFQ[S8]F[Bta]R-NH2
modifications: staple 1-4, 4-11
notes: Stapled peptide
B2: I-641 (peptide)
peptide: XDIXDEAAFQXFXT
modifications: not fully specified; Ac-PL3-Asp-Ile-B5-Asp-Glu-Ala-Ala-Phe-Gln-S8-Phe-BztA-Thr-NH2; N-terminal acetyl, C-terminal amide; non-natural PL3 (1), B5 (4), S8 (11), BztA (13); staples PL3-B5 and B5-S8 by olefin metathesis
notes: Stapled peptide; Earlier-eluting staple isomer composition
B3: I-643 (peptide)
peptide: Ac-[αAllylPro]DI[B5(9)]DEAAFQ[S8]F[Bta]W-NH2
modifications: staple 1-4, 4-11
notes: as for B2
B4: I-634 (peptide)
peptide: Ac-[αAllylPro]DI[B5(16)]DEAAFQ[S8]F[Bta]L-NH2
modifications: staple 1-4, 4-11
notes: Stapled peptide
B5: I-642 (peptide)
peptide: XDIXDEAAFQXFXT
modifications: not fully specified; Ac-PL3-Asp-Ile-B5-Asp-Glu-Ala-Ala-Phe-Gln-S8-Phe-BztA-Thr-NH2; N-terminal acetyl, C-terminal amide; non-natural PL3 (1), B5 (4), S8 (11), BztA (13); staples PL3-B5 and B5-S8 by olefin metathesis
notes: Stapled peptide; Later-eluting staple isomer composition
B6: I-636 (peptide)
peptide: Ac-[αAllylPro]DI[B5(16)]DEAAFQ[S8]F[Bta]Y-NH2
modifications: staple 1-4, 4-11
notes: Stapled peptide
B7: I-640 (peptide)
peptide: XDIXDEAAFQXFXS
modifications: not fully specified; Ac-PL3-Asp-Ile-B5-Asp-Glu-Ala-Ala-Phe-Gln-S8-Phe-BztA-Ser-NH2; N-terminal acetyl, C-terminal amide; non-natural PL3 (1), B5 (4), S8 (11), BztA (13); staples PL3-B5 and B5-S8 by olefin metathesis
notes: as for B5
B8: I-635 (peptide)
peptide: Ac-[αAllylPro]DI[B5(16)]DEAAFQ[S8]F[Bta]F-NH2
modifications: staple 1-4, 4-11
notes: Stapled peptide
B9: I-644 (peptide)
peptide: Ac-[αAllylPro]DI[B5(9)]DEAAFQ[S8]F[Bta]W-NH2
modifications: staple 1-4, 4-11
notes: as for B5
B10: I-639 (peptide)
peptide: XDIXDEAAFQXFXS
modifications: not fully specified; Ac-PL3-Asp-Ile-B5-Asp-Glu-Ala-Ala-Phe-Gln-S8-Phe-BztA-Ser-NH2; N-terminal acetyl, C-terminal amide; non-natural PL3 (1), B5 (4), S8 (11), BztA (13); staples PL3-B5 and B5-S8 by olefin metathesis
notes: as for B2
B11: I-638 (peptide)
peptide: XDIXDEAAFQXFXP
modifications: not fully specified; Ac-PL3-Asp-Ile-B5-Asp-Glu-Ala-Ala-Phe-Gln-S8-Phe-BztA-Pro-NH2; N-terminal acetyl, C-terminal amide; non-natural PL3 (1), B5 (4), S8 (11), BztA (13); staples PL3-B5 and B5-S8 by olefin metathesis
notes: as for B5
B12: I-2247 (peptide)
peptide: Ac-[αAllylPro]D[tBuAla][B5(22)]D[(Pic)GAbu]AAFL[PyrS2][3Thi][Bta]Q-NH2
modifications: staple 1-4, 4-11
B13: I-2252 (peptide)
peptide: Ac-[αAllylPro]D[tBuAla][B5(22)]D[GAbu](Benzoyl(2,3,4,5,6-F5))AAFL[PyrS2][3Thi][Bta]Q-NH2
modifications: staple 1-4, 4-11
B14: I-2262 (peptide)
peptide: Ac-[αAllylPro]D[tBuAla][B5(3)]D[Phe(3-COOH)]AA[Phe(4-F)]L[PyrS2″][3Thi][Bta]A-NH2
modifications: staple 1-4, 4-11
B15: I-2265 (peptide)
peptide: Ac-[HypEs5]D[tBuAla][B5(3)]D[TfeGA]AAFL[PyrS2″][3Thi][Bta]Q-NH2
modifications: staple 1-4, 4-11; also: staple double bonds reduced to -CH2-CH2-
B16: I-2264 (peptide)
peptide: Ac-[HypEs5]D[tBuAla][B5(3)]D[TfeGA]AAFL[PyrS2″][3Thi][Bta]Q-NH2
modifications: staple 1-4, 4-11
B17: I-2244 (peptide)
peptide: Ac-[αAllylPro]D[tBuAla][B5(22)]D[(Me2NPr)GAbu]AAFL[PyrS2][3Thi][Bta]Q-NH2
modifications: staple 1-4, 4-11
B18: I-2251 (peptide)
peptide: Ac-[αAllylPro]D[tBuAla][B5(22)]D[GAbu](Phenylacetyl(2,3,4,5,6-F5))AAFL[PyrS2][3Thi][Bta]Q-NH2
modifications: staple 1-4, 4-11

Target: T1, full-length beta-Catenin (Uniprot ID …)
Assay: fluorescence polarization competition; peptide titrated against 10 nM full-length beta-catenin + 10 nM 5FAM-TCF4(10-53) probe
Description: The plate was incubated protected from light for 60 minutes at 20° C. prior to read. Reads were performed on a CLARIOstar plate reader (BMG Labtech) in duplicate, and data were fitted to a 1:1 binding model with hill slope using an in-house script. All provided concentrations are final concentrations.

B1 and B2 are within 1.5-fold of each other in EC50: 0.088 µM for the first, 0.122 µM for the second.

First: B3
Second: B4
The EC50 of the first is 2.3-fold higher: 0.958 µM for the first, 0.425 µM for the second. The second is the more potent here.

Going from B5 to B6, the EC50 rises from 0.118 µM to 0.198 µM (1.7-fold).

Compared with B7, B8 is 2-fold higher in EC50: 0.087 µM for the first, 0.171 µM for the second.

Compared with B9, B10 is 7.4-fold lower in EC50: 0.808 µM for the first, 0.109 µM for the second. The second is the more potent here.

Binder B11 has an EC50 of 3.88 µM.

Target: T2, B-cat-Halo
Assay: cell-based or functional assay

First: B12
Second: B13
The “NanoBRET Abs IC50” value of the first is 3-fold lower: 5.9 µM for the first, 17.5 µM for the second.

Going from B14 to B15, the “NanoBRET Abs IC50” value rises from 3.7 µM to > 20 µM.

B16 and B17 are within 1.5-fold of each other in “NanoBRET Abs IC50” value: 25.5 µM for the first, 27.4 µM for the second.

For B18, the “NanoBRET Abs IC50” value was 6.4 µM.
